The source of these data is the supplement of paper PMC10567573.

To fix the notation:
B1: TRIM39 (parent)
chain: YPCVLATEGFTSGRHYWEVEVGDK
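Further: lentivirally expressed fusions sorted by FACS into six bins by GFP to DsRed ratio, PSI derived from sequencing read proportions per bin multiplied by bin number.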

This series covers variants of B1. As to the kind of experiment: protein stability index of a GFP-peptide fusion (GPS, HEK-293T) (PSI 1-6); higher = more stable. Particulars: c terminus: a fixed tail appended.
As for YPCVLATEGFTYGRHYWEVEVGDK [S12Y], the protein stability index was 1.68.

For the variant YPCVLATEGFTLGRHYWEVEVGDK [S12L], the protein stability index stood at 1.97.

For the variant YPCVLATEGFTNGRHYWEVEVGDK [S12N], the protein stability index worked out at 1.95.

With YPCVLATEGFTVGRHYWEVEVGDK [S12V], the protein stability index came to 1.6.

Take YPCVLATEGFTQGRHYWEVEVGDK [S12Q]: the protein stability index came to 1.66.

As for YPCVLATEGFTFGRHYWEVEVGDK [S12F], the protein stability index was found to be 1.34.

Turning to YPCVLATEGFTWGRHYWEVEVGDK [S12W], the protein stability index stood at 1.98.

Turning to YPCVLATEGFTRGRHYWEVEVGDK [S12R], the protein stability index came to 2.79.

For YPCVLATEGFTIGRHYWEVEVGDK [S12I], the protein stability index was found to be 2.33.

Consider YPCVLATEGFTCGRHYWEVEVGDK [S12C], for which the protein stability index turned out to be 1.96.

With YPCVLATEGFTAGRHYWEVEVGDK [S12A], the protein stability index worked out at 2.15.

As to YPCVLATEGFTKGRHYWEVEVGDK [S12K], the protein stability index was determined as 1.95.

For YPCVLATEGFTMGRHYWEVEVGDK [S12M], the protein stability index was 3.54.

In the case of YPCVLATEGFTDGRHYWEVEVGDK [S12D], the protein stability index came to 2.79.

YPCVLATEGFTTGRHYWEVEVGDK [S12T]: the protein stability index came out at 1.76.

As for YPCVLATEGFTGGRHYWEVEVGDK [S12G], the protein stability index stood at 1.6.

With YPCVLATEGFTHGRHYWEVEVGDK [S12H], the protein stability index came out at 1.67.

Take YPCVLATEGFTPGRHYWEVEVGDK [S12P]: the protein stability index amounted to 1.81.

Consider YPCVLATEGFHSGRHYWEVEVGDK [T11H], for which the protein stability index is 1.71.

As for YPCVLATEGFNSGRHYWEVEVGDK [T11N], the protein stability index was 2.67.

On to YPCVLATEGFISGRHYWEVEVGDK [T11I], for which the protein stability index came out at 2.59.

With YPCVLATEGFASGRHYWEVEVGDK [T11A], the protein stability index was found to be 1.97.

YPCVLATEGFCSGRHYWEVEVGDK [T11C]: the protein stability index worked out at 1.73.

Turning to YPCVLATEGFKSGRHYWEVEVGDK [T11K], the protein stability index worked out at 2.19.

Turning to YPCVLATEGFLSGRHYWEVEVGDK [T11L], the protein stability index was determined as 1.89.

For YPCVLATEGFMSGRHYWEVEVGDK [T11M], the protein stability index stood at 1.73.

YPCVLATEGFFSGRHYWEVEVGDK [T11F]: the protein stability index was determined as 2.55.

In the case of YPCVLATEGFRSGRHYWEVEVGDK [T11R], the protein stability index came to 2.82.

For the variant YPCVLATEGFWSGRHYWEVEVGDK [T11W], the protein stability index worked out at 2.66.

For the variant YPCVLATEGFYSGRHYWEVEVGDK [T11Y], the protein stability index is 3.04.

In the case of YPCVLATEGFGSGRHYWEVEVGDK [T11G], the protein stability index is 2.09.

Regarding YPCVLATEGFVSGRHYWEVEVGDK [T11V], the protein stability index came to 1.44.

For YPCVLATEGFESGRHYWEVEVGDK [T11E], the protein stability index was found to be 2.39.

As to YPCVLATEGFSSGRHYWEVEVGDK [T11S], the protein stability index stood at 1.58.

Regarding YPCVLATEGFDSGRHYWEVEVGDK [T11D], the protein stability index came to 2.17.

YPCVLATEGFPSGRHYWEVEVGDK [T11P]: the protein stability index was 2.19.

As for YPCVLATEGFQSGRHYWEVEVGDK [T11Q], the protein stability index was found to be 1.72.

With YPCVLATEGATSGRHYWEVEVGDK [F10A], the protein stability index came out at 1.55.

As for YPCVLATEGETSGRHYWEVEVGDK [F10E], the protein stability index is 2.77.

With YPCVLATEGNTSGRHYWEVEVGDK [F10N], the protein stability index turned out to be 2.34.

As to YPCVLATEGHTSGRHYWEVEVGDK [F10H], the protein stability index was determined as 1.86.

On to YPCVLATEGKTSGRHYWEVEVGDK [F10K], for which the protein stability index turned out to be 1.4.

Take YPCVLATEGDTSGRHYWEVEVGDK [F10D]: the protein stability index came out at 2.45.

Take YPCVLATEGLTSGRHYWEVEVGDK [F10L]: the protein stability index was 1.86.

In the case of YPCVLATEGTTSGRHYWEVEVGDK [F10T], the protein stability index is 2.49.

YPCVLATEGGTSGRHYWEVEVGDK [F10G]: the protein stability index was 2.48.

Take YPCVLATEGVTSGRHYWEVEVGDK [F10V]: the protein stability index is 1.66.

Take YPCVLATEGITSGRHYWEVEVGDK [F10I]: the protein stability index stood at 2.15.

Regarding YPCVLATEGYTSGRHYWEVEVGDK [F10Y], the protein stability index is 2.26.

In the case of YPCVLATEGRTSGRHYWEVEVGDK [F10R], the protein stability index worked out at 2.41.

As for YPCVLATEGSTSGRHYWEVEVGDK [F10S], the protein stability index was 1.9.

In the case of YPCVLATEGWTSGRHYWEVEVGDK [F10W], the protein stability index came out at 1.85.

With YPCVLATEGQTSGRHYWEVEVGDK [F10Q], the protein stability index was 1.63.

For YPCVLATEGPTSGRHYWEVEVGDK [F10P], the protein stability index was 2.12.

YPCVLATEGMTSGRHYWEVEVGDK [F10M]: the protein stability index is 2.69.

YPCVLATEQFTSGRHYWEVEVGDK [G9Q]: the protein stability index turned out to be 2.04.

For YPCVLATEMFTSGRHYWEVEVGDK [G9M], the protein stability index is 1.66.

For the variant YPCVLATEWFTSGRHYWEVEVGDK [G9W], the protein stability index amounted to 1.96.

In the case of YPCVLATECFTSGRHYWEVEVGDK [G9C], the protein stability index was determined as 1.57.

With YPCVLATEAFTSGRHYWEVEVGDK [G9A], the protein stability index was determined as 2.49.

In the case of YPCVLATEIFTSGRHYWEVEVGDK [G9I], the protein stability index is 1.05.

As for YPCVLATEPFTSGRHYWEVEVGDK [G9P], the protein stability index is 2.21.

For the variant YPCVLATEKFTSGRHYWEVEVGDK [G9K], the protein stability index is 1.8.

For the variant YPCVLATEFFTSGRHYWEVEVGDK [G9F], the protein stability index was 2.97.

Turning to YPCVLATEYFTSGRHYWEVEVGDK [G9Y], the protein stability index was 2.22.

For YPCVLATEVFTSGRHYWEVEVGDK [G9V], the protein stability index came out at 1.81.

On to YPCVLATESFTSGRHYWEVEVGDK [G9S], for which the protein stability index came to 1.81.

Consider YPCVLATEHFTSGRHYWEVEVGDK [G9H], for which the protein stability index was found to be 1.6.

With YPCVLATEEFTSGRHYWEVEVGDK [G9E], the protein stability index was 2.2.

Regarding YPCVLATERFTSGRHYWEVEVGDK [G9R], the protein stability index was 2.38.

With YPCVLATETFTSGRHYWEVEVGDK [G9T], the protein stability index was 2.03.

For the variant YPCVLATEDFTSGRHYWEVEVGDK [G9D], the protein stability index worked out at 2.01.

Turning to YPCVLATENFTSGRHYWEVEVGDK [G9N], the protein stability index was 1.99.

Take YPCVLATSGFTSGRHYWEVEVGDK [E8S]: the protein stability index worked out at 1.25.

For YPCVLATMGFTSGRHYWEVEVGDK [E8M], the protein stability index was 2.25.

As to YPCVLATGGFTSGRHYWEVEVGDK [E8G], the protein stability index was 2.09.

Turning to YPCVLATYGFTSGRHYWEVEVGDK [E8Y], the protein stability index came to 1.35.

In the case of YPCVLATTGFTSGRHYWEVEVGDK [E8T], the protein stability index amounted to 2.01.

On to YPCVLATFGFTSGRHYWEVEVGDK [E8F], for which the protein stability index was determined as 2.06.

On to YPCVLATKGFTSGRHYWEVEVGDK [E8K], for which the protein stability index came to 2.25.

Turning to YPCVLATHGFTSGRHYWEVEVGDK [E8H], the protein stability index worked out at 1.93.

As to YPCVLATPGFTSGRHYWEVEVGDK [E8P], the protein stability index was 1.62.

Consider YPCVLATRGFTSGRHYWEVEVGDK [E8R], for which the protein stability index worked out at 1.58.

For the variant YPCVLATVGFTSGRHYWEVEVGDK [E8V], the protein stability index worked out at 2.14.

With YPCVLATIGFTSGRHYWEVEVGDK [E8I], the protein stability index was found to be 2.16.

Regarding YPCVLATQGFTSGRHYWEVEVGDK [E8Q], the protein stability index stood at 1.87.

For YPCVLATLGFTSGRHYWEVEVGDK [E8L], the protein stability index is 1.89.

On to YPCVLATNGFTSGRHYWEVEVGDK [E8N], for which the protein stability index was 1.85.

Take YPCVLATEGFTSGNHYWEVEVGDK [R14N]: the protein stability index worked out at 1.91.

YPCVLATEGFTSGIHYWEVEVGDK [R14I]: the protein stability index was determined as 2.17.

With YPCVLATEGFTSGLHYWEVEVGDK [R14L], the protein stability index stood at 2.45.

Consider YPCVLATEGFTSGPHYWEVEVGDK [R14P], for which the protein stability index came to 2.32.

For the variant YPCVLATEGFTSGTHYWEVEVGDK [R14T], the protein stability index is 2.27.

For the variant YPCVLATEGFTSGAHYWEVEVGDK [R14A], the protein stability index is 2.37.
